Test results as given in patent US20200407467.

Columns and labels:
[1] = system: T7-SEPARATE PreScission-cleavable clone, monovalent display (T7Select1-2b)
[2] = system: T7-SEPARATE PreScission-cleavable clone, multivalent display (mid-copy vector)
[3] = system: uncleavable negative control clone (randomly selected 90-aa human peptide from the proteome library)
[4] = system: Fibrinogen (peptides of the human library)

Substance	phage particles recaptured, percent of pre-immobilized phage particles [1]	phage particles released, percent of pre-immobilized phage particles [1]	recapture of the cleavable peptide spiked 1 to 100 into the human library, fold increase versus mock digest [1]	signal-to-noise ratio (highest PreScission concentration versus mock digest) [1]	phage particles recaptured, percent of pre-immobilized phage particles [2]	phage particles released, percent of pre-immobilized phage particles [2]	signal-to-noise ratio (highest PreScission concentration versus mock digest) [2]	phage particles recaptured, percent of immobilized phage particles [3]	enrichment in SEPARATE (human library digest) [4]
PreScission enzyme (human rhinovirus 3C protease, GE Life Sciences)	up to 53% and 43%, respectively	up to 53%	26-fold increase	23.4	up to 24% and 22.5%, respectively	up to 24% and 22.5%, respectively	11.9	~1% of the immobilized phage particles were similarly recaptured, whether the PreScission enzyme was included in the digest reaction or not	
Thrombin									did not score in the assay, and this was true for other canonical enzyme-substrate pairs such as Thrombin/Fibrinogen
